Target: T1, Human LAG3_(23–434) (human, UniProt P18627 23-434, fluorescently labelled (fluorophore and site not named))
T1 construct: Used only in the microfluidic diffusional sizing; also called labelled LAG3; source: bought: BonOpusBio (#CJ91)
T1 sequence (looked up): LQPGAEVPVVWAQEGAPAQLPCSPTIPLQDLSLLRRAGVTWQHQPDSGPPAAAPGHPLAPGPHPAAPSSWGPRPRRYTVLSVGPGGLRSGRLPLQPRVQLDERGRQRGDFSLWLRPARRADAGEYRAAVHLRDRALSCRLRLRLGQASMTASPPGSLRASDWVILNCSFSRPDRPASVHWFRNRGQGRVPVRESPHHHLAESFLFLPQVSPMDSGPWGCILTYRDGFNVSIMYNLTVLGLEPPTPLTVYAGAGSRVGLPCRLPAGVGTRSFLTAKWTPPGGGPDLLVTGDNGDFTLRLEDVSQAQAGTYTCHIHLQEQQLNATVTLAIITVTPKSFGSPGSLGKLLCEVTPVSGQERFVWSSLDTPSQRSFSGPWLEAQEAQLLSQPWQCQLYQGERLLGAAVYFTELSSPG
Test: microfluidic diffusional sizing; fluorescently labelled protein (10 nM-10 µM) in solution, unlabelled ligand varied; PBS with 0.01% Tween-20; 60 min at room temperature; hydrodynamic radius read out; KD from Langmuir binding isotherm
Details: both partners purified

Kd: 0.232 ± 0.079 µM
B1: FGL1 Protein, Human, Recombinant (ligand, UniProt Q08830 23-312, looked up)
chain: LEDCAQEQMRLRAQVRLLETRVKQQQVKIKQLLQENEVQFLDKGDENTVIDLGSKRQYADCSEIFNDGYKLSGFYKIKPLQSPAEFSVYCDMSDGGGWTVIQRRSDGSENFNRGWKDYENGFGNFVQKHGEYWLGNKNLHFLTTQEDYTLKIDLADFEKNSRYAQYKNFKVGDEKNFYELNIGEYSGTAGDSLAGNFHPEVQWWASHQRMKFSTWDRDHDNYEGNCAEEDQSGWWFNRCHSANLNGVYYSGPYTAKTDNGIVWYTWHGWWYSLKSVVMKIRPNDFIPNVI
notes: Fibrinogen-like protein 1, human, recombinant; source: bought: Sino Biological (13484‐H08B)

— paper PMC8422075 (EMBO Molecular Medicine, 2021)
